Reference: patent US20240117018A1

What was measured:
Experiment in all cases: cell-based or functional assay
[1] = molecular target: HIV-1 Env pseudovirus 1012_11_TC21_3257 (HIV-1)
[2] = molecular target: HIV-1 Env pseudovirus 231965.c01 (HIV-1)
[3] = molecular target: HIV-1 Env pseudovirus 246F C1G (HIV-1)
[4] = molecular target: HIV-1 Env pseudovirus 249M B10 (HIV-1)
[5] = molecular target: HIV-1 Env pseudovirus 3016.v5.c45 (HIV-1)
[6] = molecular target: HIV-1 Env pseudovirus 3301.v1.c24 (HIV-1)
[7] = molecular target: HIV-1 Env pseudovirus 62357_14_D3_4589 (HIV-1)
[8] = molecular target: HIV-1 Env pseudovirus 6535.3 (HIV-1)
[9] = molecular target: HIV-1 Env pseudovirus 6540.v4.c1 (HIV-1)
[10] = molecular target: HIV-1 Env pseudovirus AC10.0.29 (HIV-1)
[11] = molecular target: HIV-1 Env pseudovirus C2101.c01 (HIV-1)
[12] = molecular target: HIV-1 Env pseudovirus CAP45.2.00.G3 (HIV-1)
[13] = molecular target: HIV-1 Env pseudovirus CNE5 (HIV-1)
[14] = molecular target: HIV-1 Env pseudovirus Ce0682_E4 (HIV-1)
[15] = molecular target: HIV-1 Env pseudovirus Ce1086_B2 (HIV-1)
[16] = molecular target: HIV-1 Env pseudovirus Ce2010_F5 (HIV-1)
[17] = molecular target: HIV-1 Env pseudovirus Du422.1 (HIV-1)
[18] = molecular target: HIV-1 Env pseudovirus MS208.A1 (HIV-1)
[19] = molecular target: HIV-1 Env pseudovirus P0402_c2_11 (HIV-1)
[20] = molecular target: HIV-1 Env pseudovirus Q842.d12 (HIV-1)
[21] = molecular target: HIV-1 Env pseudovirus R2184.c04 (HIV-1)
[22] = molecular target: HIV-1 Env pseudovirus SC05_8C11_2344 (HIV-1)
[23] = molecular target: HIV-1 Env pseudovirus ZM53M.PB12 (HIV-1)

## VRC01 (antibody)
[1]
  IC50 (Titer in TZM.bl cells): 0.12 µg/mL
  IC80 (Titer in TZM.bl cells): 0.32 µg/mL
[2]
  IC50 (Titer in TZM.bl cells): 0.34 µg/mL
  IC80 (Titer in TZM.bl cells): 1.2 µg/mL
[3]
  IC50 (Titer in TZM.bl cells): > 10 µg/mL
  IC80 (Titer in TZM.bl cells): > 10 µg/mL
[4]
  IC50 (Titer in TZM.bl cells): 0.13 µg/mL
  IC80 (Titer in TZM.bl cells): 0.46 µg/mL
[5]
  IC50 (Titer in TZM.bl cells): 0.16 µg/mL
  IC80 (Titer in TZM.bl cells): 0.42 µg/mL
[6]
  IC50 (Titer in TZM.bl cells): 0.14 µg/mL
  IC80 (Titer in TZM.bl cells): 0.32 µg/mL
[7]
  IC50 (Titer in TZM.bl cells): 0.96 µg/mL
  IC80 (Titer in TZM.bl cells): 4.68 µg/mL
[8]
  IC50 (Titer in TZM.bl cells): 0.54 µg/mL
  IC80 (Titer in TZM.bl cells): 2.7 µg/mL
[9]
  IC50 (Titer in TZM.bl cells): > 50 µg/mL
  IC80 (Titer in TZM.bl cells): > 50 µg/mL
[10]
  IC50 (Titer in TZM.bl cells): 2.2 µg/mL
  IC80 (Titer in TZM.bl cells): 6.5 µg/mL
[11]
  IC50 (Titer in TZM.bl cells): 0.36 µg/mL
  IC80 (Titer in TZM.bl cells): 1.17 µg/mL
[12]
  IC80 (Titer in TZM.bl cells): > 50 µg/mL
[13]
  IC50 (Titer in TZM.bl cells): 0.37 µg/mL
  IC80 (Titer in TZM.bl cells): 1.1 µg/mL
[14]
  IC50 (Titer in TZM.bl cells): 0.08 µg/mL
  IC80 (Titer in TZM.bl cells): 0.48 µg/mL
[15]
  IC50 (Titer in TZM.bl cells): 0.42 µg/mL
  IC80 (Titer in TZM.bl cells): 1.44 µg/mL
[16]
  IC50 (Titer in TZM.bl cells): 0.32 µg/mL
  IC80 (Titer in TZM.bl cells): 1.07 µg/mL
[17]
  IC50 (Titer in TZM.bl cells): > 50 µg/mL
  IC80 (Titer in TZM.bl cells): > 50 µg/mL
[18]
  IC50 (Titer in TZM.bl cells): 0.1 µg/mL
  IC80 (Titer in TZM.bl cells): 0.46 µg/mL
[19]
  IC50 (Titer in TZM.bl cells): 0.21 µg/mL
  IC80 (Titer in TZM.bl cells): 0.59 µg/mL
[20]
  IC50 (Titer in TZM.bl cells): 0.03 µg/mL
  IC80 (Titer in TZM.bl cells): 0.096 µg/mL
[21]
  IC50 (Titer in TZM.bl cells): 0.08 µg/mL
  IC80 (Titer in TZM.bl cells): 0.32 µg/mL
[22]
  IC50 (Titer in TZM.bl cells): 0.64 µg/mL
  IC80 (Titer in TZM.bl cells): 1.91 µg/mL
[23]
  IC50 (Titer in TZM.bl cells): 1.3 µg/mL
  IC80 (Titer in TZM.bl cells): 4 µg/mL

## N49P7.2 (antibody)
[1]
  IC50: 0.06 µg/mL
  IC80: 0.285 µg/mL
  MPI: 100
[3]
  IC50: 0.049 µg/mL
  IC80: 0.192 µg/mL
  MPI: 100
[4]
  IC50: 0.095 µg/mL
  IC80: 0.349 µg/mL
  MPI: 100
[7]
  IC50: 0.03 µg/mL
  IC80: 0.121 µg/mL
  MPI: 100
[8]
  IC50: 0.152 µg/mL
  IC80: 0.784 µg/mL
  MPI: 100
[10]
  IC50: 44.2 µg/mL
  IC80: > 50 µg/mL
  MPI: 53
[12]
  IC50: 0.162 µg/mL
  IC80: 2.49 µg/mL
  MPI: 95
[14]
  IC50: 0.067 µg/mL
  IC80: 0.233 µg/mL
  MPI: 100
[15]
  IC50: 0.166 µg/mL
  IC80: 1 µg/mL
  MPI: 100
[16]
  IC50: 0.398 µg/mL
  IC80: 1.29 µg/mL
  MPI: 100
[17]
  IC50: > 50 µg/mL
  IC80: > 50 µg/mL
  MPI: 22
[18]
  IC50: 0.186 µg/mL
  IC80: 0.966 µg/mL
  MPI: 100
[20]
  IC50: 0.045 µg/mL
  IC80: 0.2 µg/mL
  MPI: 100
[22]
  IC50: 0.326 µg/mL
  IC80: 1.14 µg/mL
  MPI: 100
[23]
  IC50: 0.477 µg/mL
  IC80: 1.73 µg/mL
  MPI: 100

## N49P11 (antibody)
[1]
  IC50: 10.6 µg/mL
  IC80: 29.3 µg/mL
  MPI: 100
[3]
  IC50: 8.48 µg/mL
  IC80: 20.9 µg/mL
  MPI: 100
[4]
  IC50: 3.54 µg/mL
  IC80: 12.9 µg/mL
  MPI: 100
[7]
  IC50: 0.599 µg/mL
  IC80: 3.56 µg/mL
  MPI: 100
[8]
  IC50: 8.22 µg/mL
  IC80: 17.2 µg/mL
  MPI: 100
[10]
  IC50: 5.52 µg/mL
  IC80: 20 µg/mL
  MPI: 100
[12]
  IC50: 5.25 µg/mL
  IC80: 24 µg/mL
  MPI: 100
[14]
  IC50: 0.091 µg/mL
  IC80: 0.387 µg/mL
  MPI: 100
[15]
  IC50: 2.19 µg/mL
  IC80: 11.7 µg/mL
  MPI: 100
[16]
  IC50: 0.38 µg/mL
  IC80: 3.27 µg/mL
  MPI: 100
[17]
  IC50: 8.81 µg/mL
  IC80: 21.2 µg/mL
  MPI: 100
[18]
  IC50: 0.259 µg/mL
  IC80: 1.94 µg/mL
  MPI: 100
[20]
  IC50: 0.027 µg/mL
  IC80: 0.103 µg/mL
  MPI: 100
[22]
  IC50: 5.42 µg/mL
  IC80: 20.5 µg/mL
  MPI: 100
[23]
  IC50: 1.05 µg/mL
  IC80: 6.53 µg/mL
  MPI: 100

## N49P18.1 (antibody)
[1]
  IC50: 16.1 µg/mL
  IC80: > 50 µg/mL
  MPI: 79
[3]
  IC50: 3.4 µg/mL
  IC80: 20.2 µg/mL
  MPI: 97
[4]
  IC50: 5.71 µg/mL
  IC80: 23.1 µg/mL
  MPI: 94
[7]
  IC50: 10.4 µg/mL
  IC80: 48 µg/mL
  MPI: 82
[8]
  IC50: 2.06 µg/mL
  IC80: 11.4 µg/mL
  MPI: 100
[10]
  IC50: 20 µg/mL
  IC80: > 50 µg/mL
  MPI: 71
[12]
  IC50: 5.14 µg/mL
  IC80: 33.1 µg/mL
  MPI: 88
[14]
  IC50: 3.95 µg/mL
  IC80: 21.1 µg/mL
  MPI: 96
[15]
  IC50: 8.98 µg/mL
  IC80: 48 µg/mL
  MPI: 92
[16]
  IC50: 29 µg/mL
  IC80: > 50 µg/mL
  MPI: 68
[17]
  IC50: 21.5 µg/mL
  IC80: > 50 µg/mL
  MPI: 75
[18]
  IC50: 8.31 µg/mL
  IC80: 33.3 µg/mL
  MPI: 88
[20]
  IC50: 3.04 µg/mL
  IC80: 8.13 µg/mL
  MPI: 100
[22]
  IC50: 17.3 µg/mL
  IC80: > 50 µg/mL
  MPI: 79
[23]
  IC50: 1.3 µg/mL
  IC80: 4.51 µg/mL
  MPI: 99
